Numbering of substitutions follows the chain as printed. Names and notes keep the numbering of the source.
B1: 5EA modified ATIII (on human ATIII.N135A background) (other)
chain: HGSPVDICTAKPRDIPMNPMCIYRSPEKKATEDEGSEQKIPEATNRRVWELSKANSRFATTFYQHLADSKNDNDNIFLSPLSISTAFAMTKLGACNDTLQQLMEVFKFDTISEKTSDQIHFFFAKLNCRLYRKAAKSSKLVSANRLFGDKSLTFNETYQDISELVYGAKLQPLDFKENAEQSRAAINKWVSNKTEGRITDVIPSEAINELTVLVLVNTIYFKGLWKSKFSPENTRKELFYKADGESCSASMMYQEGKFRYRRVAEGTQVLELPFKGDDITMVLILPKPEKSLAKVEKELTPEVLQEWLDELEEMMLVVHMPRFRIEDGFSLKEQLQDMGLVDLFSPEKSKLPGIVAEGRDDLYVSDAFHKAFLEVNEEGSEAAASTAVEAAGRSLNPNRVTFKANRPFLVFIREVPLNTIIFMGRVANPCVK
notes: Recombinant, baculovirus/Sf9, N135A background; also called AT.5EA
B2: 13 A modified ATIII (on human ATIII.N135A background) (other)
chain: B1 chain with A390G
notes: Recombinant, baculovirus/Sf9, N135A background; also called AT.13.A
B3: F2A′ modified ATIII (on human ATIII.N135A background) (other)
chain: B1 chain with A387Q, V388T, E389P, A390P, A391N
B4: Bb.C modified ATIII (on human ATIII.N135A background) (other)
chain: B1 chain with T386E, A387E, V388G, A391S
modifications: Sf9-expressed glycoprotein: N-glycans expected at Asn 96, 155 and 192 (written N); Asn135 site removed by N135A.
B5: FF modified ATIII (on human ATIII.N135A background) (other)
chain: B1 chain with E389F, A390F
notes: Recombinant, baculovirus/Sf9, N135A background; also called AT.FF
B6: Bb.D modified ATIII (on human ATIII.N135A background) (other)
chain: B1 chain with T386E, A387E, V388G, A390G, A391S
notes: Recombinant, baculovirus/Sf9, N135A background; also called AT.Bb.D
B7: 13.B modified ATIII (on human ATIII.N135A background) (other)
chain: B1 chain with A387E, A390G
notes: Recombinant, baculovirus/Sf9, N135A background; also called AT.13.B
B8: Bb.B modified ATIII (on human ATIII.N135A background) (other)
chain: B1 chain with A387E, V388G, A390G, A391S
notes: Recombinant, baculovirus/Sf9, N135A background; also called AT.Bb.B
B9: 13.D modified ATIII (on human ATIII.N135A background) (other)
chain: B1 chain with V388L, A390G
notes: Recombinant, baculovirus/Sf9, N135A background; also called AT.13.D
B10: 13.C modified ATIII (on human ATIII.N135A background) (other)
chain: B1 chain with A387E, V388L, A390G
notes: Recombinant, baculovirus/Sf9, N135A background; also called AT.13.C
B11: Aa modified ATIII (on human ATIII.N135A background) (other)
chain: B1 chain with V388E, E389G, A390G, A391G
notes: Recombinant, baculovirus/Sf9, N135A background; also called AT.Aa
B12: 7EVEA modified ATIII (on human ATIII.N135A background) (other)
chain: B1 chain with A387E
notes: Recombinant, baculovirus/Sf9, N135A background; also called AT.7EVEA
B13: Bb.A modified ATIII (on human ATIII.N135A background) (other)
chain: B1 chain with A387E, V388G, A391S
notes: Recombinant, baculovirus/Sf9, N135A background; also called AT.Bb.A
B14: LEAI modified ATIII (on human ATIII.N135A background) (other)
chain: B1 chain with V388L, A391I
notes: substitutions derived against S T A V V I A G R with the numbering of footnote c; also called AT3.LEAI
B15: Bb modified ATIII (on human ATIII.N135A background) (other)
chain: B1 chain with A387E, V388G, E389F, A390F, A391S
notes: Recombinant, baculovirus/Sf9, N135A background; also called AT.Bb; Bb mutant

What was measured:
[1] = target: T1, human neutrophil elastase (human, UniProt P08246 30-247, limits assumed); assay: cell-based or functional assay
T1 sequence (looked up): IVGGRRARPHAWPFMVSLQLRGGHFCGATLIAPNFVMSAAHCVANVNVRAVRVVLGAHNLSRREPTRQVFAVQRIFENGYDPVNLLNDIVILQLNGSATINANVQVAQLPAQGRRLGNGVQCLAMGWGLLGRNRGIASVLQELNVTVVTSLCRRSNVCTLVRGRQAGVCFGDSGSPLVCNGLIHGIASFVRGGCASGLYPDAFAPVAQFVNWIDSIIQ

human α-thrombin = human α-thrombin (human, UniProt P00734 328-363; P00734 364-622); assay: pseudo-first-order thrombin inhibition kinetics, residual activity with S-2238, 25 C, polybrene
Method: (§1) Forty μL aliquots of ATIII samples at varying concentrations (450 nM, 300 nM, 150 nM) in PNE-PEG plus 50 μL polybrene (to neutralize any contaminating heparin) were preloaded into quadruplicate wells of a low-binding 96-well assay plate (Corning). The plate was maintained at 25° C., and 20 μL aliquots of 30 nM human thrombin or 15 nM human factor Xa were added to each of the four wells at successive 5 minute intervals. Reactions were quenched 5 minutes after addition of enzyme to the last of the wells by the adding 100 μL of 1.5 mM chromogenic substrate (S-2238 for thrombin; S-2765 for factor Xa). Residual enzyme activity was measured on a BioTek ELS11X kinetic plate reader controlled by a Macintosh SE with Deltasoft software. Initial rates of chromogenic substrate cleavage were monitored at 405 nm.

human factor Xa = target: T2, human factor Xa (human, UniProt P00742 41-179; P00742 235-488, limits assumed); assay: pseudo-first-order factor Xa inhibition kinetics, residual activity with S-2765, 25 C, polybrene
T2 construct: that the active enzyme has two chains is from general knowledge
Method: as §1

Human Cathepsin G = target: T3, Human Cathepsin G (human, UniProt P08311 21-244); assay: cell-based or functional assay
T3 sequence (looked up): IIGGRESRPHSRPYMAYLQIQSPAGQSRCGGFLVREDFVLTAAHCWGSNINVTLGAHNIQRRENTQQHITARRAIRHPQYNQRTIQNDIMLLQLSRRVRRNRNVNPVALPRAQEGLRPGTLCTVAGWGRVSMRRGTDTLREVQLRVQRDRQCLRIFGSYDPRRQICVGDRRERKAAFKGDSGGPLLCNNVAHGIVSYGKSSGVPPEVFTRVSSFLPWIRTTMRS

T2 sequence (P00742 41-179 limits assumed, chain 1 of 2): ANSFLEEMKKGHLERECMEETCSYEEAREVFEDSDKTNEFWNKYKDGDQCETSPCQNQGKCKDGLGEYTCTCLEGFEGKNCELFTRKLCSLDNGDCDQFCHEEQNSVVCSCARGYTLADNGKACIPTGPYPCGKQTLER
T2 sequence (P00742 235-488 limits assumed, chain 2 of 2): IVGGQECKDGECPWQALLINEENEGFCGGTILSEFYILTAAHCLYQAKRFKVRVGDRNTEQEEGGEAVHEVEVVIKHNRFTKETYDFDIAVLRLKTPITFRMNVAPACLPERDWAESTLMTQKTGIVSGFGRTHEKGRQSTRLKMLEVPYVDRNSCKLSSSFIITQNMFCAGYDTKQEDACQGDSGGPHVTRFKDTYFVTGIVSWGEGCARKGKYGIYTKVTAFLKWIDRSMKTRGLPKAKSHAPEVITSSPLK

Row | Binder | HNE resistance T1/2, min [1] [min] | kapp (apparent second-order rate constant of association) (human α-thrombin) [M⁻¹ s⁻¹] | kapp (apparent second-order rate constant of association) (human factor Xa) [M⁻¹ s⁻¹] | Cathepsin G resistance T1/2, min (Human Cathepsin G) [min]
1 | B1 | 3.2 | 600 | 3100 | –
2 | B2 | 2.1 | 200 | 500 | –
3 | B3 | 2.6 | – | – | –
4 | B4 | 437 | – | – | –
5 | B5 | < 2.5 | 1400 | 3000 | –
6 | B6 | > 45 | 100 | – | –
7 | B7 | 7.6 | – | 2800 | –
8 | B8 | 44.8 | – | 700 | 16.2
9 | B9 | 2.6 | – | 3300 | –
10 | B10 | 10.1 | – | 5100 | –
11 | B11 | 9.1 | 400 | 400 | –
12 | B12 | 5.6 | 600 | 4800 | –
13 | B13 | 27.4 | 500 | 6200 | > 45
14 | B14 | 2.8 | 3600 | 7000 | 6.1
15 | B15 | 15.8 | 3600 | 4500 | 1.4
